# Laboratory results reported in paper PMC8318587, “Structure-guided microbial targeting of antistaphylococcal prodrugs” (eLife, 2021).
# B1: SaGloB (Staphylococcus aureus subsp. aureus str. Newman) (protein)
# chain: MRISSLTLGLVDTNTYFIENDKAVILIDPSGESEKIIKKLNQINKPLKAILLTHAHFDHIGAVDDIVDRFDVPVYMHEAEFDFLKDPVKNGADKFKQYGLPIITSKVTPEKLNEGSTEIEGFKFNVLHTPGHSPGSLTYVFDEFAVVGDTLFNNGIGRTDLYKGDYETLVDSIQDKIFELEGDLPLFPGHGPYTTVDDEQLNPFLHG
# What was measured:
# Assay in all cases: Esterase substrate specificity, fluorogenic SAR library kinetics
# Format in all cases: biochemical, Staphylococcus aureus
# Conditions in all cases: other: SaGloB, fluorogenic ester substrate; pH 7.5; 37.0 °C
# [1] = substrate: C=CCOC(C)C(=O)OCOc1ccc2c(c1)Oc1cc(OCOC(=O)C(C)OCC=C)ccc1C21OC(=O)c2ccccc21
# Experimental: (§1) Kinetic measurements were performed according to [White et al., 2018] with minor variation. Lyophilized human and mouse sera were resuspended according to manufacturer instructions in highly pure, filtered water at protein concentrations of 85 mg/mL and 70 mg/mL, respectively. One milliliter of resuspended serum was added to a 24 mL mastermix for a final concentration of 31.25 mM Tris pH 7.5, 312.5 mM NaCl, 1.25 mM MgCl2, 12.5% glycerol, and 3.4 mg/mL or 2.8 mg/mL protein for human and mouse serum, respectively. For purified proteins, 5 mL of a 75 µg/mL stock was added to yield a 20 mL mastermix containing 31.25 mM Tris pH 7.5, 312.5 mM NaCl, 1.25 mM MgCl2, 12.5% glycerol, and 18.75 µg/mL protein. Mastermix was stored on ice when not in use. Twenty microliters of mastermix was transferred to a black, 96-well half area microplate (Corning, CLS3993) and prewarmed at 37°C. Fluorogenic substrates were prepared as 10 mM stock solutions in 100% DMSO and were diluted in water to a starting concentration of 500 µM. Enzyme catalyzed substrate hydrolysis was initiated by addition of 5 µL substrate dilution in technical duplicate to the prewarmed serum or protein solution. Final assay concentrations were as follows: 25 mM Tris pH 7.5, 250 mM NaCl, 1 mM MgCl2, 10% glycerol, and protein at a concentration of 2.72 mg/mL (human serum), 2.24 mg/mL (mouse serum), or 15 µg/mL (FrmB, GloB). The resulting change in fluorescence (λex = 485 nm, λem = 520 nm) was followed for 15 min at 37°C, collecting data every 30 s on a FLUOstar Omega microplate reader (BMG Labtech). Fluorescence measurements were converted to molar concentrations using a fluorescein standard curve (2.5 nmol–0.6 pmol). The initial rates of reaction were measured three independent times with two technical replicates per measurement and fit to a line using GraphPad Prism (GraphPad Software, La Jolla, CA). Initial rates of reaction were plotted versus the concentration of substrate and fit to a standard Michaelis–Menten equation (v = Vmax[S]/(Km + [S])), yielding estimates of Vmax and Km. Values for kcat and kcat/Km were calculated based on amount of enzyme added when purified enzymes were used.
# [2] = substrate: CCCC(C)C(=O)OCOc1ccc2c(c1)Oc1cc(OCOC(=O)C(C)CCC)ccc1C21OC(=O)c2ccccc21
# Experimental: as §1
# [3] = substrate: CC(C)CCC(=O)OCOc1ccc2c(c1)Oc1cc(OCOC(=O)CCC(C)C)ccc1C21OC(=O)c2ccccc21
# Experimental: as §1
# [4] = substrate: CCCC(=O)OCOc1ccc2c(c1)Oc1cc(OCOC(=O)CCC)ccc1C21OC(=O)c2ccccc21
# Experimental: as §1
# [5] = substrate: CCC(OC)C(=O)OCOc1ccc2c(c1)Oc1cc(OCOC(=O)C(CC)OC)ccc1C21OC(=O)c2ccccc21
# Experimental: as §1
# [6] = substrate: COCCC(=O)OCOc1ccc2c(c1)Oc1cc(OCOC(=O)CCOC)ccc1C21OC(=O)c2ccccc21
# Experimental: as §1
# [7] = substrate: COCC(=O)OCOc1ccc2c(c1)Oc1cc(OCOC(=O)COC)ccc1C21OC(=O)c2ccccc21
# Experimental: as §1
# [8] = substrate: CSC(C)C(=O)OCOc1ccc2c(c1)Oc1cc(OCOC(=O)C(C)SC)ccc1C21OC(=O)c2ccccc21
# Experimental: as §1
# [9] = substrate: CCOC(C)C(=O)OCOc1ccc2c(c1)Oc1cc(OCOC(=O)C(C)OCC)ccc1C21OC(=O)c2ccccc21
# Experimental: as §1
# [10] = substrate: CCOCCC(=O)OCOc1ccc2c(c1)Oc1cc(OCOC(=O)CCOCC)ccc1C21OC(=O)c2ccccc21
# Experimental: as §1
# [11] = substrate: CCSC(C)C(=O)OCOc1ccc2c(c1)Oc1cc(OCOC(=O)C(C)SCC)ccc1C21OC(=O)c2ccccc21
# Experimental: as §1
# [12] = substrate: CCCCC(=O)OCOc1ccc2c(c1)Oc1cc(OCOC(=O)CCCC)ccc1C21OC(=O)c2ccccc21
# Experimental: as §1
protein,measurement,setting,value
B1,Km,[1],36.91 µM
same,Vmax,[1],1.04 pmol*min-1*μg protein-1
same,kcat,[1],0.156 10-3 s-1
same,kcat/Km,[1],4.21 M⁻¹ s⁻¹
same,Km,[2],84.89 µM
same,Vmax,[2],0.351 pmol*min-1*μg protein-1
same,kcat,[2],0.0524 10-3 s-1
same,kcat/Km,[2],0.618 M⁻¹ s⁻¹
same,Km,[3],48.00 µM
same,Vmax,[3],0.444 pmol*min-1*μg protein-1
same,kcat,[3],0.0663 10-3 s-1
same,kcat/Km,[3],1.38 M⁻¹ s⁻¹
same,Km,[4],6.23 µM
same,Vmax,[4],0.497 pmol*min-1*μg protein-1
same,kcat,[4],0.0744 10-3 s-1
same,kcat/Km,[4],11.9 M⁻¹ s⁻¹
same,Km,[5],55.5 µM
same,Vmax,[5],2.54 pmol*min-1*μg protein-1
same,kcat,[5],0.380 10-3 s-1
same,kcat/Km,[5],6.84 M⁻¹ s⁻¹
same,Km,[6],18.0 µM
same,Vmax,[6],1.39 pmol*min-1*μg protein-1
same,kcat,[6],0.208 10-3 s-1
same,kcat/Km,[6],11.5 M⁻¹ s⁻¹
same,Km,[7],73.5 µM
same,Vmax,[7],217 pmol*min-1*μg protein-1
same,kcat,[7],32.5 10-3 s-1
same,kcat/Km,[7],442 M⁻¹ s⁻¹
same,Km,[8],49.5 µM
same,Vmax,[8],0.722 pmol*min-1*μg protein-1
same,kcat,[8],0.108 10-3 s-1
same,kcat/Km,[8],2.18 M⁻¹ s⁻¹
same,Km,[9],15.5 µM
same,Vmax,[9],1.01 pmol*min-1*μg protein-1
same,kcat,[9],0.151 10-3 s-1
same,kcat/Km,[9],9.71 M⁻¹ s⁻¹
same,Km,[10],21.2 µM
same,Vmax,[10],0.731 pmol*min-1*μg protein-1
same,kcat,[10],0.109 10-3 s-1
same,kcat/Km,[10],5.15 M⁻¹ s⁻¹
same,Km,[11],79.8 µM
same,Vmax,[11],1.02 pmol*min-1*μg protein-1
same,kcat,[11],0.153 10-3 s-1
same,kcat/Km,[11],1.92 M⁻¹ s⁻¹
same,Km,[12],18.33 µM
same,Vmax,[12],0.292 pmol*min-1*μg protein-1
same,kcat,[12],0.0436 10-3 s-1
same,kcat/Km,[12],2.38 M⁻¹ s⁻¹
